Test results published in paper PMC12751073.

What was measured:
[1] = target: FLAG-tagged full-length human CHK2, wildtype (immunoprecipitated) (human) (UniProt O96017)
[2] = target: FLAG-tagged full-length human CHK2, wildtype (immunoprecipitated) (human) (UniProt O96017); remark: listed apart in the source
[3] = target: FLAG-tagged full-length human CHK2 K245A (immunoprecipitated) (human) (UniProt O96017)

radiometric kinase assay (CHKtide, [^32P]-γ-ATP) of immunoprecipitated full-length CHK2 with or without CaCl2 and CaM [1]: 10 fold | IC50 of CaM (0-200 μM) for the kinase activity of immunoprecipitated full-length CHK2, radiometric assay, 1 mM CaCl2 [2]: 8.09 µM | fold decrease in radiometric kinase assay of immunoprecipitated full-length CHK2 mutant with or without CaCl2 and CaM [3]: 10 fold
Substance: Calmodulin (recombinant, produced in-house) (from UniProt P0DP23 1-149) (natural protein)
